Assay results: EP4707390A1 (PeptiDream Inc., dated 2026)

Biological target: T1, Recombinant human IgG1 Fc protein (110-HG, R&D Systems) (human, UniProt P01857-1 100-330 = IgG part)
T1 construct: domain: Fc; Bought protein; also called human IgG Fc protein; biotinylated Fc
Experiment: display assay, conjugates on linker 1 or 3, biotinylated Fc on streptavidin magnetic beads against beads without Fc, real-time PCR

B1: Fc-binding peptide encoded by the translation region of SEQ ID NO: 26 (peptide)
peptide: MPDCAYHKGELVWCTGGGGSS
modifications: C-terminus covalently bonded to the puromycin of the linker; sample treated with oxidized glutathione after reverse transcription
notes: Tested as an mRNA/cDNA-linker-peptide conjugate on monovalent linker 1 or divalent linker 3
Does B1 bind?
Result: binds
